{
  "source": "patent US20260167699A1",
  "about": "(Chugai, published 2026)",
  "data": [
    {"molecular_target": "T1, FcγRIIIa extracellular domain, C-terminal His tag (human, UniProt P08637 17-208)", "T1 construct": "extracellular domain; also called 3a", "T1 sequence (P08637 other isoform, or with tags, fused parts or gaps)": "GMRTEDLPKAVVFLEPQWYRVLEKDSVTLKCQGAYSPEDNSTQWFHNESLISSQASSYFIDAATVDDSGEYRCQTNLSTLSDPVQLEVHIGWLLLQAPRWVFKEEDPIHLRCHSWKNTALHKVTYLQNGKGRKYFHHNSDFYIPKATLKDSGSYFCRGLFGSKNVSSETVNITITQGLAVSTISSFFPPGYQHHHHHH", "experiment": "SPR, binding activity relative to GpH7-A5/GpH7-B3/GpL16-k0 (=100)", "units": {"He/Con 3a": "%"}, "values": [
      {"binder": "GpH7-A5/GpH7-B3 variant E269_01G/GpL16-k0 (antibody, human IgG1, kappa, He Ab; copies: 1 + 1 + 2) heavy 1: not shown heavy 2: not shown light: DIVMTQSPLSLPVTPGEPASISCQASESLVHSNRNTYLHWYLQKPGQSPQLLIYKVSNRFSGVPDRFSGSGSGTDFTLKISRVEAEDVGVYYCSQNTHVPPTFGQGTKVEIERTVAAPSVFIFPPSDEQLKSGTASVVCLLNNFYPREAKVQWKVDNALQSGNSQESVTEQDSKDSTYSLSSTLTLSKADYEKHKVYACEVTHQGLSSPVTKSFNRGEC", "He/Con 3a": 61.6},
      {"binder": "GpH7-A5/GpH7-B3 variant E269_02A/GpL16-k0 (antibody, human IgG1, kappa, He Ab; copies: 1 + 1 + 2) heavy 1: not shown heavy 2: not shown light: DIVMTQSPLSLPVTPGEPASISCQASESLVHSNRNTYLHWYLQKPGQSPQLLIYKVSNRFSGVPDRFSGSGSGTDFTLKISRVEAEDVGVYYCSQNTHVPPTFGQGTKVEIERTVAAPSVFIFPPSDEQLKSGTASVVCLLNNFYPREAKVQWKVDNALQSGNSQESVTEQDSKDSTYSLSSTLTLSKADYEKHKVYACEVTHQGLSSPVTKSFNRGEC", "He/Con 3a": 68},
      {"binder": "GpH7-A5/GpH7-B3 variant E269_03V/GpL16-k0 (antibody, human IgG1, kappa, He Ab; copies: 1 + 1 + 2) heavy 1: not shown heavy 2: not shown light: DIVMTQSPLSLPVTPGEPASISCQASESLVHSNRNTYLHWYLQKPGQSPQLLIYKVSNRFSGVPDRFSGSGSGTDFTLKISRVEAEDVGVYYCSQNTHVPPTFGQGTKVEIERTVAAPSVFIFPPSDEQLKSGTASVVCLLNNFYPREAKVQWKVDNALQSGNSQESVTEQDSKDSTYSLSSTLTLSKADYEKHKVYACEVTHQGLSSPVTKSFNRGEC", "He/Con 3a": 56},
      {"binder": "GpH7-A5/GpH7-B3 variant E269_06M/GpL16-k0 (antibody, human IgG1, kappa, He Ab; copies: 1 + 1 + 2) heavy 1: not shown heavy 2: not shown light: DIVMTQSPLSLPVTPGEPASISCQASESLVHSNRNTYLHWYLQKPGQSPQLLIYKVSNRFSGVPDRFSGSGSGTDFTLKISRVEAEDVGVYYCSQNTHVPPTFGQGTKVEIERTVAAPSVFIFPPSDEQLKSGTASVVCLLNNFYPREAKVQWKVDNALQSGNSQESVTEQDSKDSTYSLSSTLTLSKADYEKHKVYACEVTHQGLSSPVTKSFNRGEC", "He/Con 3a": 57.9},
      {"binder": "GpH7-A5/GpH7-B3 variant E269_07I/GpL16-k0 (antibody, human IgG1, kappa, He Ab; copies: 1 + 1 + 2) heavy 1: not shown heavy 2: not shown light: DIVMTQSPLSLPVTPGEPASISCQASESLVHSNRNTYLHWYLQKPGQSPQLLIYKVSNRFSGVPDRFSGSGSGTDFTLKISRVEAEDVGVYYCSQNTHVPPTFGQGTKVEIERTVAAPSVFIFPPSDEQLKSGTASVVCLLNNFYPREAKVQWKVDNALQSGNSQESVTEQDSKDSTYSLSSTLTLSKADYEKHKVYACEVTHQGLSSPVTKSFNRGEC", "He/Con 3a": 55.3},
      {"binder": "GpH7-A5/GpH7-B3 variant E269_08L/GpL16-k0 (antibody, human IgG1, kappa, He Ab; copies: 1 + 1 + 2) heavy 1: not shown heavy 2: not shown light: DIVMTQSPLSLPVTPGEPASISCQASESLVHSNRNTYLHWYLQKPGQSPQLLIYKVSNRFSGVPDRFSGSGSGTDFTLKISRVEAEDVGVYYCSQNTHVPPTFGQGTKVEIERTVAAPSVFIFPPSDEQLKSGTASVVCLLNNFYPREAKVQWKVDNALQSGNSQESVTEQDSKDSTYSLSSTLTLSKADYEKHKVYACEVTHQGLSSPVTKSFNRGEC", "He/Con 3a": 51.5},
      {"binder": "GpH7-A5/GpH7-B3 variant E269_09D/GpL16-k0 (antibody, human IgG1, kappa, He Ab; copies: 1 + 1 + 2) heavy 1: not shown heavy 2: not shown light: DIVMTQSPLSLPVTPGEPASISCQASESLVHSNRNTYLHWYLQKPGQSPQLLIYKVSNRFSGVPDRFSGSGSGTDFTLKISRVEAEDVGVYYCSQNTHVPPTFGQGTKVEIERTVAAPSVFIFPPSDEQLKSGTASVVCLLNNFYPREAKVQWKVDNALQSGNSQESVTEQDSKDSTYSLSSTLTLSKADYEKHKVYACEVTHQGLSSPVTKSFNRGEC", "He/Con 3a": 106},
      {"binder": "GpH7-A5/GpH7-B3 variant E269_13S/GpL16-k0 (antibody, human IgG1, kappa, He Ab; copies: 1 + 1 + 2) heavy 1: not shown heavy 2: not shown light: DIVMTQSPLSLPVTPGEPASISCQASESLVHSNRNTYLHWYLQKPGQSPQLLIYKVSNRFSGVPDRFSGSGSGTDFTLKISRVEAEDVGVYYCSQNTHVPPTFGQGTKVEIERTVAAPSVFIFPPSDEQLKSGTASVVCLLNNFYPREAKVQWKVDNALQSGNSQESVTEQDSKDSTYSLSSTLTLSKADYEKHKVYACEVTHQGLSSPVTKSFNRGEC", "He/Con 3a": 62.1},
      {"binder": "GpH7-A5/GpH7-B3 variant E269_14T/GpL16-k0 (antibody, human IgG1, kappa, He Ab; copies: 1 + 1 + 2) heavy 1: not shown heavy 2: not shown light: DIVMTQSPLSLPVTPGEPASISCQASESLVHSNRNTYLHWYLQKPGQSPQLLIYKVSNRFSGVPDRFSGSGSGTDFTLKISRVEAEDVGVYYCSQNTHVPPTFGQGTKVEIERTVAAPSVFIFPPSDEQLKSGTASVVCLLNNFYPREAKVQWKVDNALQSGNSQESVTEQDSKDSTYSLSSTLTLSKADYEKHKVYACEVTHQGLSSPVTKSFNRGEC", "He/Con 3a": 59.7}
    ]}
  ]
}
